According to publication PMC4414354, “The Pentameric Nucleoplasmin Fold Is Present in Drosophila FKBP39 and a Large Number of Chromatin-Related Proteins” (Journal of Molecular Biology, 2015):

How the values were obtained:
[1] = molecular target: the molecule itself; test: SEC; S200 or S75 120-mL column in 20 mM Tris-HCl pH 8.0, 150 mM (salt not given), 2 mM β-mercaptoethanol; apparent molecular weight
[2] = molecular target: the molecule itself; test: SANS; deuterated FKBP39 NPL, 2.0-10.0 mg/mL, 20 mM 4-morpholineethanesulfonic acid pH 6.0, 25 mM NaCl, 20 °C; bead model fitted with 5-fold symmetry
[3] = molecular target: the molecule itself; test: SAXS; HD2 NPL 1.0-5.0 mg/mL and FKBP39 NPL 1.0-20.0 mg/mL, 50 mM Hepes pH 7.5, 100 mM NaCl, 11 °C, ESRF BioSAXS beamline ID14eh3; FKBP39 modelled with P5, HD2 with P25 symmetry
[4] = molecular target: the molecule itself; test: SAXS; Fpr4Δloop, 1.0-4.0 mg/mL, 50 mM Hepes pH 7.5, 100 mM NaCl, 11 °C, beamline X33 (EMBL/DESY Hamburg); P5 symmetry

B1: FKBP39 NPL domain (N-terminal nucleoplasmin-like domain of Drosophila FKBP39, residues 1-92) (domain or fragment, Drosophila melanogaster)
chain: QGAMAMFWGLNMKPERKYSQTIIKSFHISGVALDKGQEAKLYLAAEKQEYIVATVTKAIPQVALDLNFSKGDRIMFYTAGDASVSLLGYLHDIDSGS
notes: 3-4 additional amino acids left at the N-terminus after chymotrypsin cleavage, printed as [F]QGA: with or without the leading F; second amino acid changed from Ser to Ala for the NcoI cloning site; dipeptide from the BamHI site at the C-terminus; Deuterated or otherwise isotope-labelled samples were used for SANS and NMR; The structure was deposited at the PDB; also called N-terminal domain of …
With B1 the “stoichiometry N” value [1] was roughly 5 and the “stoichiometry N” value [2] was 5.

B2: Arabidopsis thaliana type 2 histone deacetylase HD2 NPL domain (HD2a, amino acids 1-112) (domain or fragment, UniProt Q56WH4 1-112, looked up)
chain: MEFWGVAVTPKNATKVTPEEDSLVHISQASLDCTVKSGESVVLSVTVGGAKLVIGTLSQDKFPQISFDLVFDKEFELSHSGTKANVHFIGYKSPNIEQDDFTSSDDEDVPEA
notes: type 2 histone deacetylase (printed as HD2a), Arabidopsis thaliana, amino acids 1-112; also called Arabidopsis NPL construct; A thali; source: E. coli BL21 (DE3), purified; copies: 10
With B2 the “stoichiometry N” value [3] was 10.

B3: Fpr4 NPLΔloop (S. cerevisiae Fpr4 amino acids 1-168 with the β4-β5 loop deleted) (domain or fragment, Saccharomyces cerevisiae, UniProt Q06205 1-168, looked up)
chain: MSDMLPLATYSLNVEPYSPTPALNFKIPVTIRITMAAIDPEPFDDDKKPSTLRIIKRNEIDDEFEECVLLTLSPKGQYQQALDITIAPEEDVQFVVTGSYTISLTGNYVKHPF
notes: Fpr4, Saccharomyces cerevisiae, amino acids 1-58 joined to 114-168 by overlap deletion PCR; The construct contains a C-terminal unstructured tail seen in the SAXS model; also called Fpr4Δloop; Fpr4 NPL domain; source: E. coli BL21 (DE3), purified
B3 was tested, and the “stoichiometry N” value [4] was 5.
